In PMC6328183:

Molecular target: FuBc protein (recombinant protein of the fusion loop and Bc loop of domain II of dengue envelope protein with their neighbouring residues) (DENV-2 (of the template structure PDB 1OAN))
Assay: SPR; Biacore T200; FuBc immobilised by amine coupling; scFv injected at 10 uM down to 50 nM, 20 ul/min over 2 min; regeneration with 2 M NaCl; control flow cell subtracted; KD as kd/ka

Chain of 3IXY scFv antibody (VH and VL of the anti-fusion loop dengue E53 Fab, PDB 3IXY, joined by a (G4S)3 linker) (VH): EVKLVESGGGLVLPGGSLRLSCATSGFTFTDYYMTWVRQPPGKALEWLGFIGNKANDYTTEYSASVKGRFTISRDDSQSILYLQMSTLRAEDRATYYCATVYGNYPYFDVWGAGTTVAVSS
Chain of 3IXY scFv antibody (VH and VL of the anti-fusion loop dengue E53 Fab, PDB 3IXY, joined by a (G4S)3 linker) (VL): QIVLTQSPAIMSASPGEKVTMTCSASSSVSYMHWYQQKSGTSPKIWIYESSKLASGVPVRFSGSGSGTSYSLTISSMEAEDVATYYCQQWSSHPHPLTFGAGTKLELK

3IXY scFv antibody (VH and VL of the anti-fusion loop dengue E53 Fab, PDB 3IXY, joined by a (G4S)3 linker)
Kd: 2.3 µM
